Target: the molecule itself
Test: SEC; Superdex 200 column; purified F1

B1: polymeric F1 protein (F1 capsular antigen of Yersinia pestis) (natural protein)
chain: ADLTASTTATATLVEPARITLTYKEGAPITIMDNGNIDTELLVGTLTLGGYKTGTTSTSVNFTDAAGDPMYLTFTSQDGNNHQFTTKVIGKDSRDFDISPKVNGENLVGDDVVLATGSQDFFVRSIGSKGGKLAAGKYTDAVTVTVSNQ
notes: also called PolyF1; polyF1
binding result: binds

From paper PMC10054699 (Vaccines, 2023)
